Data from article PMC5070119, “Oligomeric interface modulation causes misregulation of purine 5´-nucleotidase in relapsed leukemia” (BMC Biology, 2016).
Numbering of substitutions follows the chain as printed. Numbers in names are those of the source.

B1: cytosolic purine 5'-nucleotidase (cN-II), full-length wild type (enzyme, human, UniProt P49902 1-561, looked up)
chain: MSTSWSDRLQNAADMPANMDKHALKKYRREAYHRVFVNRSLAMEKIKCFGFDMDYTLAVYKSPEYESLGFELTVERLVSIGYPQELLSFAYDSTFPTRGLVFDTLYGNLLKVDAYGNLLVCAHGFNFIRGPETREQYPNKFIQRDDTERFYILNTLFNLPETYLLACLVDFFTNCPRYTSCETGFKDGDLFMSYRSMFQDVRDAVDWVHYKGSLKEKTVENLEKYVVKDGKLPLLLSRMKEVGKVFLATNSDYKYTDKIMTYLFDFPHGPKPGSSHRPWQSYFDLILVDARKPLFFGEGTVLRQVDTKTGKLKIGTYTGPLQHGIVYSGGSSDTICDLLGAKGKDILYIGDHIFGDILKSKKRQGWRTFLVIPELAQELHVWTDKSSLFEELQSLDIFLAELYKHLDSSSNERPDISSIQRRIKKVTHDMDMCYGMMGSLFRSGSRQTLFASQVMRYADLYAASFINLLYYPFSYLFRAAHVLMPHESTVEHTHVDINEMESPLATRNRTSVDFKDTDYKRHQLTRSISEIKPPNLFPLAPQEITHCHDEDDDEEEEEEEE
notes: cytosolic purine 5'-nucleotidase (cN-II), human, EC 3.1.3.5, 561 residues; full length made by ligating a synthetic C-terminal tail into the truncated construct; Homotetramer; also called wild-type cN-II; NT5C2 product
B2: cytosolic purine 5'-nucleotidase (cN-II) L375F, full-length (enzyme, human, UniProt P49902 1-561, looked up)
chain: B1 chain with L375F
notes: cytosolic purine 5'-nucleotidase (cN-II), human, 561 residues, with the relapsed-ALL somatic mutation L375F; Mutation found in patients with relapsed ALL; Homotetramer; also called L375F mutant
B3: cytosolic purine 5'-nucleotidase (cN-II) R367Q, full-length (enzyme, human, UniProt P49902 1-561, looked up)
chain: B1 chain with R367Q
notes: cytosolic purine 5'-nucleotidase (cN-II), human, 561 residues, with the relapsed-ALL somatic mutation R367Q; Mutation found in patients with relapsed ALL; Homotetramer; also called R367Q mutant
B4: cytosolic purine 5'-nucleotidase (cN-II) R238W, full-length (enzyme, human, UniProt P49902 1-561, looked up)
chain: B1 chain with R238W
notes: cytosolic purine 5'-nucleotidase (cN-II), human, 561 residues, with the relapsed-ALL somatic mutation R238W; Mutation found in patients with relapsed ALL; Homotetramer; also called R238W mutant

Biological target: the molecule itself
Assay: SEC; Superdex 200 10/300 GL, 50 mM sodium phosphate pH 7.4, 100 mM NaCl, 2 mM TCEP; 200 ul of 0.5 mg/ml protein; calibrated with high molecular weight standards

Row | Protein | stoichiometry N
1 | B1 | 4
2 | B2 | 4
3 | B3 | 4
4 | B4 | 4
